The supplement of paper PMC7877785
± gives the uncertainty stated by the source.

Test: self-splicing fitness, log relative to wild type (ln ratio); higher = more splicing; Tetrahymena group I intron in knt gene, E. coli kanamycin selection, DiMSum; sequences stand for … in CUCUCU…GGAGGGAAAAGUUAUCAGGCAUGCACCUGGUAGCUAGUCUUUAAACCAAUAGAUUGCAUCGGUUUAAAAGGCAAGACCGUCAAAUUGCGGGAAAGGGGUCAACAGCCGUUCAGUACCAAGUCUCAGGGGAAACUUUGAGAUGGCCUUGCAAAGGGUAUGGUAAUAAGCUGACGGACAUGGUCCUAACCACGCAGCCAAGUCCUAAGUCAACAGAUCUUCUGUUGAUAUGGAUGCAGUUCACAGACUAAAUGUCGGUCGGGGAAGAUGUAUUCUUCUCAUAAGAUAUAGUCGGACCUCUCCUUAAUGGGAGCUAGCGGAUGAAGUGAUGCAACACUGGAGCCGCUGGGAACUAAUUUGUAUGCGAAAGUAUAUUGAUUAGUUUUGGAGUACUCGUGGUCG
Summary of the method: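 Library with all eight P1ex-region intron nucleotides randomised, intron inside the knt kanamycin-resistance gene on pET-22b(+), in E. coli BL21(DE3). Cells grew overnight at 37°C or 30°C on LB agar with or without 25 μg/mL kanamycin (plus 100 μg/mL carbenicillin, 50 μM IPTG, 0.2% rhamnose), in six replicate transformations. Pooled colonies were amplicon-sequenced on Illumina HiSeq 2500. DiMSum fitness is the error-weighted combination of wild-type-normalised replicate fold changes, kanamycin versus none.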

Sequence | self-splicing fitness (ln) (30 °C) | self-splicing fitness (ln) (37 °C)
CGAAAGCAAUAUUACGAAAG | -0.96 ± 0.073 | -0.475 ± 0.11
CGAAAGCAAUAUUACGAAGU | -3.07 ± 0.15 | -1.84 ± 0.19
CGAAAGCAAUAUUACGAGAA | -2.51 ± 0.49 | –
CGAAAGCAAUAUUACGCAAA | -2.59 ± 0.26 | -2.35 ± 0.32
CGAAAGCAAUAUUACGCACA | -0.831 ± 0.11 | -0.358 ± 0.16
CGAAAGCAAUAUUACGCCGC | – | -2.13 ± 0.36
CGAAAGCAAUAUUACGCGUC | – | -0.242 ± 0.19
CGAAAGCAAUAUUACGCGUU | -4 ± 0.18 | -2.85 ± 0.2
CGAAAGCAAUAUUACGCUCG | -3.71 ± 0.3 | -2.26 ± 0.22
CGAAAGCAAUAUUACGCUCU | -2.56 ± 0.14 | -1.56 ± 0.15
CGAAAGCAAUAUUACGCUUC | -2.95 ± 0.38 | -2.01 ± 0.39
CGAAAGCAAUAUUACGGACU | -0.69 ± 0.053 | 0.357 ± 0.079
CGAAAGCAAUAUUACGGAGG | -0.982 ± 0.097 | -1.45 ± 0.14
CGAAAGCAAUAUUACGGCAG | -0.162 ± 0.081 | 0.194 ± 0.1
CGAAAGCAAUAUUACGGCGG | -0.187 ± 0.067 | 0.456 ± 0.093
CGAAAGCAAUAUUACGGGUC | -4 ± 0.3 | -3.76 ± 0.34
CGAAAGCAAUAUUACGUACA | -1.25 ± 0.14 | -1.23 ± 0.15
CGAAAGCAAUAUUACGUACG | -1.5 ± 0.076 | -1.27 ± 0.11
CGAAAGCAAUAUUACGUAGG | -0.721 ± 0.067 | -0.28 ± 0.096
CGAAAGCAAUAUUACGUAUA | -3.52 ± 0.17 | -2.99 ± 0.21
CGAAAGCAAUAUUACGUUAG | -0.97 ± 0.068 | -0.895 ± 0.082
CGAAAGCAAUAUUACGUUCC | -2.1 ± 0.21 | -0.586 ± 0.22
CGAAAGCAAUAUUACGUUCG | -3.44 ± 0.14 | -2.62 ± 0.15
CGAAAGCAAUAUUACGUUCU | -0.581 ± 0.075 | 0.092 ± 0.1
CGACAGCAAUAUUACGACAA | -2.08 ± 0.13 | -1.27 ± 0.13

Sequence | self-splicing fitness (ln) (30 °C) | self-splicing fitness (ln) (37 °C)
CGACAGCAAUAUUACGACGG | 0.243 ± 0.074 | 0.0681 ± 0.086
CGACAGCAAUAUUACGAGUG | -1.06 ± 0.046 | -0.592 ± 0.063
CGACAGCAAUAUUACGAUUG | -0.746 ± 0.07 | -0.877 ± 0.091
CGACAGCAAUAUUACGCACA | -0.429 ± 0.17 | 0.097 ± 0.17
CGACAGCAAUAUUACGCAGC | – | -1.96 ± 0.29
CGACAGCAAUAUUACGCAGG | -2.05 ± 0.081 | -0.906 ± 0.088
CGACAGCAAUAUUACGCAUG | -1.37 ± 0.075 | -0.351 ± 0.074
CGACAGCAAUAUUACGCCAC | – | 0.365 ± 0.49
CGACAGCAAUAUUACGCGAA | -2.75 ± 0.17 | -1.42 ± 0.14
CGACAGCAAUAUUACGCGUC | -1.94 ± 0.14 | -2.76 ± 0.27
CGACAGCAAUAUUACGCGUG | -1.55 ± 0.067 | -1.14 ± 0.095
CGACAGCAAUAUUACGCUCA | 0.00701 ± 0.094 | -0.503 ± 0.1
CGACAGCAAUAUUACGGAGU | -3.91 ± 0.2 | -2.53 ± 0.14
CGACAGCAAUAUUACGGCUC | -2.5 ± 0.11 | -1.89 ± 0.14
CGACAGCAAUAUUACGGGCA | -1.24 ± 0.14 | 0.117 ± 0.13
CGACAGCAAUAUUACGGGGC | -3.72 ± 0.29 | -2.87 ± 0.29
CGACAGCAAUAUUACGGGGG | -2.92 ± 0.094 | -2.51 ± 0.11
CGACAGCAAUAUUACGGUAU | -3.62 ± 0.2 | -2.45 ± 0.23
CGACAGCAAUAUUACGGUGA | -2.34 ± 0.14 | -1.55 ± 0.14
CGACAGCAAUAUUACGGUUG | -3.3 ± 0.13 | -2.84 ± 0.18
CGACAGCAAUAUUACGUACC | -0.817 ± 0.12 | -0.217 ± 0.19
CGACAGCAAUAUUACGUAUC | – | -1.59 ± 0.19
CGACAGCAAUAUUACGUCCA | -0.437 ± 0.066 | -0.321 ± 0.081
CGACAGCAAUAUUACGUGAA | -1.93 ± 0.11 | -2.02 ± 0.15
CGACAGCAAUAUUACGUGAU | -3.44 ± 0.21 | -1.92 ± 0.17

Sequence | self-splicing fitness (ln) (30 °C) | self-splicing fitness (ln) (37 °C)
CGAGAGCAAUAUUACGAAGA | -3.49 ± 0.36 | –
CGAGAGCAAUAUUACGACCU | -0.7 ± 0.21 | -0.635 ± 0.41
CGAGAGCAAUAUUACGCAAA | -2.67 ± 0.27 | –
CGAGAGCAAUAUUACGCAAU | -2.58 ± 0.36 | –
CGAGAGCAAUAUUACGCAGA | -3.36 ± 0.33 | -1.94 ± 0.26
CGAGAGCAAUAUUACGCCUC | -4.16 ± 0.39 | -1.27 ± 0.18
CGAGAGCAAUAUUACGCGAG | -2.82 ± 0.19 | -1.88 ± 0.22
CGAGAGCAAUAUUACGCGGG | -3.05 ± 0.32 | -2.16 ± 0.27
CGAGAGCAAUAUUACGCUCG | – | -2.39 ± 0.38
CGAGAGCAAUAUUACGGAGA | -2.61 ± 0.26 | –
CGAGAGCAAUAUUACGGAGC | -2.84 ± 0.35 | –
CGAGAGCAAUAUUACGGAUA | -2.25 ± 0.37 | -1.82 ± 0.41
CGAGAGCAAUAUUACGGCAA | – | -2.79 ± 0.48
CGAGAGCAAUAUUACGGCCG | -3.76 ± 0.43 | -1.02 ± 0.3
CGAGAGCAAUAUUACGGCUG | -1.18 ± 0.13 | -1.14 ± 0.17
CGAGAGCAAUAUUACGGGAG | -2.83 ± 0.16 | -0.597 ± 0.16
CGAGAGCAAUAUUACGGGGG | -3.83 ± 0.43 | -3.14 ± 0.47
CGAGAGCAAUAUUACGGGGU | -2.86 ± 0.37 | -2.27 ± 0.37
CGAGAGCAAUAUUACGUAAG | -2.59 ± 0.13 | -1.26 ± 0.15
CGAGAGCAAUAUUACGUAUA | -4.06 ± 0.36 | –
CGAGAGCAAUAUUACGUAUU | -2.53 ± 0.28 | -1.4 ± 0.28
CGAGAGCAAUAUUACGUCUC | -3.03 ± 0.22 | -3.17 ± 0.35
CGAGAGCAAUAUUACGUGGU | – | -3.2 ± 0.37
CGAGAGCAAUAUUACGUUAU | -3.57 ± 0.28 | -2.8 ± 0.28
CGAGAGCAAUAUUACGUUGG | -3.78 ± 0.3 | -2.48 ± 0.22

Sequence | self-splicing fitness (ln) (30 °C) | self-splicing fitness (ln) (37 °C)
CGAUAGCAAUAUUACGACGA | -1.5 ± 0.17 | -0.547 ± 0.15
CGAUAGCAAUAUUACGACGG | 0.185 ± 0.098 | 0.424 ± 0.14
CGAUAGCAAUAUUACGACGU | -0.903 ± 0.065 | 0.0313 ± 0.07
CGAUAGCAAUAUUACGAGGU | -2.8 ± 0.22 | -3.01 ± 0.34
CGAUAGCAAUAUUACGAUGA | -1.8 ± 0.17 | -0.503 ± 0.2
CGAUAGCAAUAUUACGAUGC | -4.1 ± 0.21 | -1.81 ± 0.15
CGAUAGCAAUAUUACGCCCA | -1.46 ± 0.28 | 0.585 ± 0.16
CGAUAGCAAUAUUACGCCGC | -3.37 ± 0.37 | -1.3 ± 0.47
CGAUAGCAAUAUUACGCGUU | -3.13 ± 0.24 | -2.51 ± 0.22
CGAUAGCAAUAUUACGGACG | -1 ± 0.085 | -0.734 ± 0.11
CGAUAGCAAUAUUACGGAGA | -3.98 ± 0.42 | -2.4 ± 0.29
CGAUAGCAAUAUUACGGCAG | -0.958 ± 0.087 | -0.344 ± 0.12
CGAUAGCAAUAUUACGGGAC | -4.19 ± 0.36 | -2.42 ± 0.27
CGAUAGCAAUAUUACGGGUA | -3.87 ± 0.4 | -2.64 ± 0.2
CGAUAGCAAUAUUACGGUGC | -3.57 ± 0.3 | -2.23 ± 0.24
CGAUAGCAAUAUUACGUAGA | -3.31 ± 0.17 | -1.3 ± 0.13
CGAUAGCAAUAUUACGUAUU | -3.53 ± 0.25 | -2.61 ± 0.24
CGAUAGCAAUAUUACGUGCG | -2.23 ± 0.089 | -1.04 ± 0.1
CGCAAGCAAUAUUACGACAC | -2.89 ± 0.29 | -0.474 ± 0.22
CGCAAGCAAUAUUACGACUG | -0.662 ± 0.097 | -0.47 ± 0.12
CGCAAGCAAUAUUACGAGCC | -1.07 ± 0.095 | -0.349 ± 0.12
CGCAAGCAAUAUUACGAUAG | -0.276 ± 0.066 | 0.36 ± 0.092
CGCAAGCAAUAUUACGAUAU | -2.7 ± 0.14 | -1.91 ± 0.13
CGCAAGCAAUAUUACGCCAA | -2.12 ± 0.27 | -3.03 ± 0.35
CGCAAGCAAUAUUACGCGAU | -3.15 ± 0.22 | -3.83 ± 0.42
